From article PMC7372559 (ACS Chemical Biology, 2020)

Molecular target: the molecule itself
Experiment: SEC; Superdex-200 Increase column, 25 mM Tris-HCl (pH 8.0), 10% (v/v) glycerol, 100 mM NaCl; retention time of mutants compared with wild type

Protein | stoichiometry N
OphMA wild type, full-length, His8-tagged (enzyme, Omphalotus olearius, UniProt A0A2R2JFI5 1-417, looked up, backbone N-methylation: most abundant species with complete methylation of the core peptide (9-fold) and an additional methylation at Val413) METSTQTKAGSLTIVGTGIESIGQMTLQALSYIEAAAKVFYCVIDPATEAFILTKNKNCVDLYQYYDNGKSRLNTYTQMSELMVREVRKGLDVVGVFYGHPGVFVNPSHRALAIAKSEGYRARMLPGVSAEDCLFADLCIDPSNPGCLTYEASDFLIRDRPVSIHSHLVLFQVGCVGIADFNFTGFDNNKFGVLVDRLEQEYGAEHPVVHYIAAMMPHQDPVTDKYTVAQLREPEIAKRVGGVSTFYIPPKARKASNLDIIRRLELLPAGQVPDKKARIYPANQWEPDVPEVEPYRPSDQAAIAQLADHAPPEQYQPLATSKAMSDVMTKLALDPKALADYKADHRAFAQSVPDLTPQERAALELGDSWAIRCAMKNMPSSLLDAARESGEEASQNGFPWVIVVGVIGVIGSVMSTE | 2
OphMA I407R, full-length, His-tagged (enzyme, backbone N-methylation: dominant species carried three methylations) METSTQTKAGSLTIVGTGIESIGQMTLQALSYIEAAAKVFYCVIDPATEAFILTKNKNCVDLYQYYDNGKSRLNTYTQMSELMVREVRKGLDVVGVFYGHPGVFVNPSHRALAIAKSEGYRARMLPGVSAEDCLFADLCIDPSNPGCLTYEASDFLIRDRPVSIHSHLVLFQVGCVGIADFNFTGFDNNKFGVLVDRLEQEYGAEHPVVHYIAAMMPHQDPVTDKYTVAQLREPEIAKRVGGVSTFYIPPKARKASNLDIIRRLELLPAGQVPDKKARIYPANQWEPDVPEVEPYRPSDQAAIAQLADHAPPEQYQPLATSKAMSDVMTKLALDPKALADYKADHRAFAQSVPDLTPQERAALELGDSWAIRCAMKNMPSSLLDAARESGEEASQNGFPWVIVVGVRGVIGSVMSTE | 2
OphMA V403T, full-length, His-tagged (enzyme, backbone N-methylation: 10-fold methylated species most abundant) METSTQTKAGSLTIVGTGIESIGQMTLQALSYIEAAAKVFYCVIDPATEAFILTKNKNCVDLYQYYDNGKSRLNTYTQMSELMVREVRKGLDVVGVFYGHPGVFVNPSHRALAIAKSEGYRARMLPGVSAEDCLFADLCIDPSNPGCLTYEASDFLIRDRPVSIHSHLVLFQVGCVGIADFNFTGFDNNKFGVLVDRLEQEYGAEHPVVHYIAAMMPHQDPVTDKYTVAQLREPEIAKRVGGVSTFYIPPKARKASNLDIIRRLELLPAGQVPDKKARIYPANQWEPDVPEVEPYRPSDQAAIAQLADHAPPEQYQPLATSKAMSDVMTKLALDPKALADYKADHRAFAQSVPDLTPQERAALELGDSWAIRCAMKNMPSSLLDAARESGEEASQNGFPWVITVGVIGVIGSVMSTE | 2
OphMA V403P, full-length, His-tagged (enzyme, backbone N-methylation: dominant species unmethylated, evidence for two methylations) METSTQTKAGSLTIVGTGIESIGQMTLQALSYIEAAAKVFYCVIDPATEAFILTKNKNCVDLYQYYDNGKSRLNTYTQMSELMVREVRKGLDVVGVFYGHPGVFVNPSHRALAIAKSEGYRARMLPGVSAEDCLFADLCIDPSNPGCLTYEASDFLIRDRPVSIHSHLVLFQVGCVGIADFNFTGFDNNKFGVLVDRLEQEYGAEHPVVHYIAAMMPHQDPVTDKYTVAQLREPEIAKRVGGVSTFYIPPKARKASNLDIIRRLELLPAGQVPDKKARIYPANQWEPDVPEVEPYRPSDQAAIAQLADHAPPEQYQPLATSKAMSDVMTKLALDPKALADYKADHRAFAQSVPDLTPQERAALELGDSWAIRCAMKNMPSSLLDAARESGEEASQNGFPWVIPVGVIGVIGSVMSTE | 2
OphMA V406E, full-length, His-tagged (enzyme, backbone N-methylation: mixture of similarly abundant peptides containing 4, 5, or 6 methylations) METSTQTKAGSLTIVGTGIESIGQMTLQALSYIEAAAKVFYCVIDPATEAFILTKNKNCVDLYQYYDNGKSRLNTYTQMSELMVREVRKGLDVVGVFYGHPGVFVNPSHRALAIAKSEGYRARMLPGVSAEDCLFADLCIDPSNPGCLTYEASDFLIRDRPVSIHSHLVLFQVGCVGIADFNFTGFDNNKFGVLVDRLEQEYGAEHPVVHYIAAMMPHQDPVTDKYTVAQLREPEIAKRVGGVSTFYIPPKARKASNLDIIRRLELLPAGQVPDKKARIYPANQWEPDVPEVEPYRPSDQAAIAQLADHAPPEQYQPLATSKAMSDVMTKLALDPKALADYKADHRAFAQSVPDLTPQERAALELGDSWAIRCAMKNMPSSLLDAARESGEEASQNGFPWVIVVGEIGVIGSVMSTE | 2
OphMA I407P, full-length, His-tagged (in vivo methylation series) (enzyme, backbone N-methylation: a variety of species (two to four methylations), evidence of up to six) METSTQTKAGSLTIVGTGIESIGQMTLQALSYIEAAAKVFYCVIDPATEAFILTKNKNCVDLYQYYDNGKSRLNTYTQMSELMVREVRKGLDVVGVFYGHPGVFVNPSHRALAIAKSEGYRARMLPGVSAEDCLFADLCIDPSNPGCLTYEASDFLIRDRPVSIHSHLVLFQVGCVGIADFNFTGFDNNKFGVLVDRLEQEYGAEHPVVHYIAAMMPHQDPVTDKYTVAQLREPEIAKRVGGVSTFYIPPKARKASNLDIIRRLELLPAGQVPDKKARIYPANQWEPDVPEVEPYRPSDQAAIAQLADHAPPEQYQPLATSKAMSDVMTKLALDPKALADYKADHRAFAQSVPDLTPQERAALELGDSWAIRCAMKNMPSSLLDAARESGEEASQNGFPWVIVVGVPGVIGSVMSTE | 2
OphMA V403R, full-length, His-tagged (enzyme, backbone N-methylation: dominant species unmethylated, next most abundant with two methylations) METSTQTKAGSLTIVGTGIESIGQMTLQALSYIEAAAKVFYCVIDPATEAFILTKNKNCVDLYQYYDNGKSRLNTYTQMSELMVREVRKGLDVVGVFYGHPGVFVNPSHRALAIAKSEGYRARMLPGVSAEDCLFADLCIDPSNPGCLTYEASDFLIRDRPVSIHSHLVLFQVGCVGIADFNFTGFDNNKFGVLVDRLEQEYGAEHPVVHYIAAMMPHQDPVTDKYTVAQLREPEIAKRVGGVSTFYIPPKARKASNLDIIRRLELLPAGQVPDKKARIYPANQWEPDVPEVEPYRPSDQAAIAQLADHAPPEQYQPLATSKAMSDVMTKLALDPKALADYKADHRAFAQSVPDLTPQERAALELGDSWAIRCAMKNMPSSLLDAARESGEEASQNGFPWVIRVGVIGVIGSVMSTE | 2
OphMA V406R, full-length, His-tagged (enzyme, backbone N-methylation: dominant species unmethylated, next most abundant with two methylations) METSTQTKAGSLTIVGTGIESIGQMTLQALSYIEAAAKVFYCVIDPATEAFILTKNKNCVDLYQYYDNGKSRLNTYTQMSELMVREVRKGLDVVGVFYGHPGVFVNPSHRALAIAKSEGYRARMLPGVSAEDCLFADLCIDPSNPGCLTYEASDFLIRDRPVSIHSHLVLFQVGCVGIADFNFTGFDNNKFGVLVDRLEQEYGAEHPVVHYIAAMMPHQDPVTDKYTVAQLREPEIAKRVGGVSTFYIPPKARKASNLDIIRRLELLPAGQVPDKKARIYPANQWEPDVPEVEPYRPSDQAAIAQLADHAPPEQYQPLATSKAMSDVMTKLALDPKALADYKADHRAFAQSVPDLTPQERAALELGDSWAIRCAMKNMPSSLLDAARESGEEASQNGFPWVIVVGRIGVIGSVMSTE | 2
OphMA V406P, full-length, His-tagged (in vivo methylation series) (enzyme, backbone N-methylation: dominant species unmethylated, evidence for two and four methylations) METSTQTKAGSLTIVGTGIESIGQMTLQALSYIEAAAKVFYCVIDPATEAFILTKNKNCVDLYQYYDNGKSRLNTYTQMSELMVREVRKGLDVVGVFYGHPGVFVNPSHRALAIAKSEGYRARMLPGVSAEDCLFADLCIDPSNPGCLTYEASDFLIRDRPVSIHSHLVLFQVGCVGIADFNFTGFDNNKFGVLVDRLEQEYGAEHPVVHYIAAMMPHQDPVTDKYTVAQLREPEIAKRVGGVSTFYIPPKARKASNLDIIRRLELLPAGQVPDKKARIYPANQWEPDVPEVEPYRPSDQAAIAQLADHAPPEQYQPLATSKAMSDVMTKLALDPKALADYKADHRAFAQSVPDLTPQERAALELGDSWAIRCAMKNMPSSLLDAARESGEEASQNGFPWVIVVGPIGVIGSVMSTE | 2
OphMA V403E, full-length, His-tagged (enzyme, backbone N-methylation: peptides with 1 methylation) METSTQTKAGSLTIVGTGIESIGQMTLQALSYIEAAAKVFYCVIDPATEAFILTKNKNCVDLYQYYDNGKSRLNTYTQMSELMVREVRKGLDVVGVFYGHPGVFVNPSHRALAIAKSEGYRARMLPGVSAEDCLFADLCIDPSNPGCLTYEASDFLIRDRPVSIHSHLVLFQVGCVGIADFNFTGFDNNKFGVLVDRLEQEYGAEHPVVHYIAAMMPHQDPVTDKYTVAQLREPEIAKRVGGVSTFYIPPKARKASNLDIIRRLELLPAGQVPDKKARIYPANQWEPDVPEVEPYRPSDQAAIAQLADHAPPEQYQPLATSKAMSDVMTKLALDPKALADYKADHRAFAQSVPDLTPQERAALELGDSWAIRCAMKNMPSSLLDAARESGEEASQNGFPWVIEVGVIGVIGSVMSTE | 2
OphMA I407E, full-length, His-tagged (enzyme, backbone N-methylation: peptides with 5 methylations) METSTQTKAGSLTIVGTGIESIGQMTLQALSYIEAAAKVFYCVIDPATEAFILTKNKNCVDLYQYYDNGKSRLNTYTQMSELMVREVRKGLDVVGVFYGHPGVFVNPSHRALAIAKSEGYRARMLPGVSAEDCLFADLCIDPSNPGCLTYEASDFLIRDRPVSIHSHLVLFQVGCVGIADFNFTGFDNNKFGVLVDRLEQEYGAEHPVVHYIAAMMPHQDPVTDKYTVAQLREPEIAKRVGGVSTFYIPPKARKASNLDIIRRLELLPAGQVPDKKARIYPANQWEPDVPEVEPYRPSDQAAIAQLADHAPPEQYQPLATSKAMSDVMTKLALDPKALADYKADHRAFAQSVPDLTPQERAALELGDSWAIRCAMKNMPSSLLDAARESGEEASQNGFPWVIVVGVEGVIGSVMSTE | 2
OphMA V404E, full-length, His-tagged (in vivo methylation series) (enzyme, backbone N-methylation: peptides with 2 methylations) METSTQTKAGSLTIVGTGIESIGQMTLQALSYIEAAAKVFYCVIDPATEAFILTKNKNCVDLYQYYDNGKSRLNTYTQMSELMVREVRKGLDVVGVFYGHPGVFVNPSHRALAIAKSEGYRARMLPGVSAEDCLFADLCIDPSNPGCLTYEASDFLIRDRPVSIHSHLVLFQVGCVGIADFNFTGFDNNKFGVLVDRLEQEYGAEHPVVHYIAAMMPHQDPVTDKYTVAQLREPEIAKRVGGVSTFYIPPKARKASNLDIIRRLELLPAGQVPDKKARIYPANQWEPDVPEVEPYRPSDQAAIAQLADHAPPEQYQPLATSKAMSDVMTKLALDPKALADYKADHRAFAQSVPDLTPQERAALELGDSWAIRCAMKNMPSSLLDAARESGEEASQNGFPWVIVEGVIGVIGSVMSTE | 2
OphMA V404R, full-length, His-tagged (enzyme, backbone N-methylation: dominant species unmethylated, next most abundant with two methylations) METSTQTKAGSLTIVGTGIESIGQMTLQALSYIEAAAKVFYCVIDPATEAFILTKNKNCVDLYQYYDNGKSRLNTYTQMSELMVREVRKGLDVVGVFYGHPGVFVNPSHRALAIAKSEGYRARMLPGVSAEDCLFADLCIDPSNPGCLTYEASDFLIRDRPVSIHSHLVLFQVGCVGIADFNFTGFDNNKFGVLVDRLEQEYGAEHPVVHYIAAMMPHQDPVTDKYTVAQLREPEIAKRVGGVSTFYIPPKARKASNLDIIRRLELLPAGQVPDKKARIYPANQWEPDVPEVEPYRPSDQAAIAQLADHAPPEQYQPLATSKAMSDVMTKLALDPKALADYKADHRAFAQSVPDLTPQERAALELGDSWAIRCAMKNMPSSLLDAARESGEEASQNGFPWVIVRGVIGVIGSVMSTE | 2
